Test results reported in patent publication US20200079833A1 (AstraZeneca / MedImmune, published 2020).
Starred links: 1 amine or outer side, 2 acyl side, 3 side chain; linkers in the order of their positions; H or OH if unused. Non-standard residues stand in square brackets, D forms with d. Groups on a side chain read outwards from the residue. Primed or numbered codes have the meaning given here. No end group written: not given here. *: point of attachment. γGlu = O=C(O)[C@H](CCC(=O)[*:2])N[*:1]; Palmitoyl = CCCCCCCCCCCCCCCC(=O)*; αMeF = C[C@](N)(Cc1ccccc1)C(=O)O; αMeK = C[C@](N)(CCCCN)C(=O)O; Lauroyl = CCCCCCCCCCCC(=O)*; PEG2′ = not defined here; Aib = CC(C)(N)C(=O)O

T1: GLP-1R in the INS1e assay (UniProt P32301 22-463, limits assumed)
T1 sequence (looked up): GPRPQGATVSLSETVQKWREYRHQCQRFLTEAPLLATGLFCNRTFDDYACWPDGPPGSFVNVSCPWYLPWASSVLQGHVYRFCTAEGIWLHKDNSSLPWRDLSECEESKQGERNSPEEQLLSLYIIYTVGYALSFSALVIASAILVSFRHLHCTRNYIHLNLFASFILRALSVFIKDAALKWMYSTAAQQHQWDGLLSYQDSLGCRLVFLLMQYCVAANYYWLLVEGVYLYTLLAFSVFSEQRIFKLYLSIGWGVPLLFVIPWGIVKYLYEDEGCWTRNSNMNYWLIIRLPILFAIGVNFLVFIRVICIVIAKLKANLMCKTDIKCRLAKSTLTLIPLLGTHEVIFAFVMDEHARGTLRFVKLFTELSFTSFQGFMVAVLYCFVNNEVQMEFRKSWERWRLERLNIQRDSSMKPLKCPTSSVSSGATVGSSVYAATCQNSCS

T2: glucose-dependent insulinotropic peptide (gastric inhibitory polypeptide) receptor (GIPR), primary cAMP assay (human, UniProt P48546 22-466)
T2 sequence (looked up): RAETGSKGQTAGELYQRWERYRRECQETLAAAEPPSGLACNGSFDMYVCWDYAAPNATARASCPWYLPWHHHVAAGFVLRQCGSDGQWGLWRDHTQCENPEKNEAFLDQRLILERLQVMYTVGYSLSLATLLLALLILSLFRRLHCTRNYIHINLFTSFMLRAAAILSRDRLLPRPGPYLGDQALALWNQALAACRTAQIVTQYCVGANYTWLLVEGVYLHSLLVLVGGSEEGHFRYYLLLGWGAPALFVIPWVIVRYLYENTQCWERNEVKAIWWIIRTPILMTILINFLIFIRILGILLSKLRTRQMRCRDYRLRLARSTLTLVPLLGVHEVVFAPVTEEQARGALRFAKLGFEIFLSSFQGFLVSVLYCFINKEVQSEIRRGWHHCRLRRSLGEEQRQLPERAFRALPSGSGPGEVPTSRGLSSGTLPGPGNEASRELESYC


Tests used:
Experiment in all cases: cell-based or functional assay
[1] = target: T1, GLP-1R in the INS1e assay
[2] = target: GLP-1 receptor (GLP-1R), primary cAMP assay (human, UniProt P43220 24-463)
[3] = target: glucagon receptor (GCGR), primary cAMP assay (human, UniProt P47871 26-477)
Chain of glucagon receptor (GCGR), primary cAMP assay (P47871 26-477): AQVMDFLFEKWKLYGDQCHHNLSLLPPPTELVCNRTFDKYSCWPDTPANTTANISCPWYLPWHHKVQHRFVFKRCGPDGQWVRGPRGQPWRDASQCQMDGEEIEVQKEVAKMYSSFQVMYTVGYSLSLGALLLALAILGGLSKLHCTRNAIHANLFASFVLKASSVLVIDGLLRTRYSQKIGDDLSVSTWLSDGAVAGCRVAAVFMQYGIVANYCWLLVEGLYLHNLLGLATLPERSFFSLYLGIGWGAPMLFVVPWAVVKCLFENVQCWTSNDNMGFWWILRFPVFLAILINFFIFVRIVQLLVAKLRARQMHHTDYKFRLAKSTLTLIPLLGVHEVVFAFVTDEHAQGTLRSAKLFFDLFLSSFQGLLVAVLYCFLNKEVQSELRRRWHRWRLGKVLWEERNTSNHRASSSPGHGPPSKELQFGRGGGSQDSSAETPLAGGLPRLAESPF

[4] = target: T2, glucose-dependent insulinotropic …

| Binder | INS1e assay EC50 (cAMP) Mean [1] [nM] | INS1e assay EC50 (cAMP) n1 [1] [nM] | INS1e assay EC50 (cAMP) n2 [1] [nM] | Primary assay EC50 (cAMP) Mean [2] [nM] | Primary assay EC50 (cAMP), n1 [2] [nM] | Primary assay EC50 (cAMP), n2 [2] [nM] | Primary assay EC50 (cAMP), n1 [3] [nM] | Primary assay EC50 (cAMP), n2 [3] [nM] | Primary assay EC50 (cAMP), n1 [4] [nM] | Primary assay EC50 (cAMP), n2 [4] [nM] |
| --- | --- | --- | --- | --- | --- | --- | --- | --- | --- | --- |
| H[Aib]EGS[αMeF]TSDVSK([PEG2′-PEG2′-γGlu-Lauroyl])YLEGEAA[αMeK]EFIAWK([PEG2′-PEG2′-γGlu-Lauroyl])VEGG-NH2 [SEQ ID NO: 253] | 2.11 | 2.08 | 2.14 | 0.0206 | 0.0234 | 0.0177 | 22.3 | 22.3 | 22.3 | 22.3 |
| H[Aib]EGTFTSDVSK([PEG2′-PEG2′-γGlu-Lauroyl])FLEGEAAEEFIK([PEG2′-PEG2′-γGlu-Lauroyl])FVVEGG-NH2 [SEQ ID NO: 239] | 13 | 14.7 | 11.2 | 0.0074 | 0.0063 | 0.00845 | 22.5 | 22.5 | 22.5 | 22.5 |
| H[Aib]EGS[αMeF]TSDVSK([PEG2′-PEG2′-γGlu-Palmitoyl])FLEGEAA[αMeK]EFIK([PEG2′-PEG2′-γGlu-Palmitoyl])FVVEGG-NH2 [SEQ ID NO: 250] | 38.1 | 36.7 | 39.4 | 0.0451 | 0.0292 | 0.061 | 21.6 | 21.6 | 21.6 | 21.6 |
| H[Aib]EGTFTSDVSK([PEG2′-PEG2′-γGlu-Lauroyl])FLEGEAAEEFIK([PEG2′-PEG2′-γGlu-Lauroyl])WVVEGG-NH2 [SEQ ID NO: 237] | 19.3 | 14.3 | 24.3 | 0.0209 | 0.0195 | 0.0223 | 22.3 | 22.3 | 22.3 | 22.3 |
| H[Aib]EGS[αMeF]TSDVSK([PEG2′-PEG2′-γGlu-Palmitoyl])FLEGEAAEEFIK([PEG2′-PEG2′-γGlu-Palmitoyl])FVVEGG-NH2 [SEQ ID NO: 247] | 72.1 | 72.1 | 72.1 | 1.67 | 1.31 | 2.02 | 21.6 | 21.6 | 21.6 | 21.6 |
| H[Aib]EGS[αMeF]TSDVSK([PEG2′-PEG2′-γGlu-Lauroyl])FLEGEAAEEFIK([PEG2′-PEG2′-γGlu-Lauroyl])FVVEGG-NH2 [SEQ ID NO: 241] | 6.28 | 5.84 | 6.71 | 0.0096 | 0.00755 | 0.0116 | 22.5 | 22.5 | 22.5 | 22.5 |
| H[Aib]EGS[αMeF]TSDVSK([PEG2′-PEG2′-γGlu-Lauroyl])YLEGEAAEEFIK([PEG2′-PEG2′-γGlu-Lauroyl])WVVEGG-NH2 [SEQ ID NO: 240] | 6.02 | 6.86 | 5.17 | 0.014 | 0.0109 | 0.0171 | 22.2 | 22.2 | 22.2 | 22.2 |
| H[Aib]EGS[αMeF]TSDVSK([PEG2′-PEG2′-γGlu-Lauroyl])YLEGEAA[αMeK]EFIK([PEG2′-PEG2′-γGlu-Lauroyl])WVVEGG-NH2 [SEQ ID NO: 249] | 0.566 | 0.721 | 0.41 | 0.0055 | 0.00447 | 0.00649 | 22.1 | 22.1 | 22.1 | 22.1 |
| H[Aib]EGS[αMeF]TSDVSK([PEG2′-PEG2′-γGlu-Lauroyl])FLEGEAA[αMeK]EFIK([PEG2′-PEG2′-γGlu-Lauroyl])FVVEGG-NH2 [SEQ ID NO: 248] | 0.403 | 0.337 | 0.468 | 0.005 | 0.00377 | 0.0062 | 22.4 | 22.4 | 22.4 | 22.4 |
| H[Aib]EGTFTSDVSK([PEG2′-PEG2′-γGlu-Lauroyl])YLEGEAAEEFIK([PEG2′-PEG2′-γGlu-Lauroyl])FVVEGG-NH2 [SEQ ID NO: 238] | 13.7 | 15 | 12.4 | 0.011 | 0.00875 | 0.0132 | 22.4 | 22.4 | 22.4 | 22.4 |
| H[Aib]EGS[αMeF]TSDVSK([PEG2′-PEG2′-γGlu-Lauroyl])YLEGEAA[αMeK]EFIAK([PEG2′-PEG2′-γGlu-Lauroyl])VVEGG-NH2 [SEQ ID NO: 252] | 0.175 | 0.184 | 0.166 | 0.0025 | 0.00288 | 0.00217 | 22.7 | 22.7 | 22.7 | 22.7 |
| H[Aib]EGS[αMeF]TSDVSK([PEG2′-PEG2′-γGlu-Palmitoyl])YLEGEAAEEFIK([PEG2′-PEG2′-γGlu-Palmitoyl])WVVEGG-NH2 [SEQ ID NO: 246] | 71.3 | 71.3 | 71.3 | 1.4 | 0.999 | 1.8 | 21.4 | 21.4 | 21.4 | 21.4 |
| H[Aib]EGTFTSDVSK([PEG2′-PEG2′-γGlu-Lauroyl])YLEGEAAEEFIK([PEG2′-PEG2′-γGlu-Lauroyl])WVVEGG-NH2 [SEQ ID NO: 236] | 12.3 | 12 | 12.7 | 0.0217 | 0.0165 | 0.0268 | 22.2 | 22.2 | 22.2 | 22.2 |
| H[Aib]EGS[αMeF]TSDVSK([PEG2′-PEG2′-γGlu-Palmitoyl])YLEGEAA[αMeK]EFIK([PEG2′-PEG2′-γGlu-Palmitoyl])WVVEGG-NH2 [SEQ ID NO: 251] | 7.16 | 6.47 | 7.85 | 0.0311 | 0.016 | 0.0462 | 21.3 | 21.3 | 21.3 | 21.3 |
